Data from patent publication US5707800, “Retinoic acid response elements and assays employing same” (The Salk Institute for Biological Studies).

How the values were obtained:
RAR (subtype not stated) = assay: cell_activity; details: CV-1 cells; RAR blocks RXR transactivation at equal expression vector amount; no RA activation by RAR itself
[1] = target: RXR alpha (retinoid X receptor alpha) (Homo sapiens, UniProt P19793 P19793:1-462); assay: cell_activity; CAT induction by retinoic acid in F9 cells, CRBPII promoter reporter pCRBPII-CAT; details: tags: expression plasmid; chain copies: 4; label: 32P
Chain of RXR alpha (retinoid X receptor alpha) (P19793 whole entry, one chain of several): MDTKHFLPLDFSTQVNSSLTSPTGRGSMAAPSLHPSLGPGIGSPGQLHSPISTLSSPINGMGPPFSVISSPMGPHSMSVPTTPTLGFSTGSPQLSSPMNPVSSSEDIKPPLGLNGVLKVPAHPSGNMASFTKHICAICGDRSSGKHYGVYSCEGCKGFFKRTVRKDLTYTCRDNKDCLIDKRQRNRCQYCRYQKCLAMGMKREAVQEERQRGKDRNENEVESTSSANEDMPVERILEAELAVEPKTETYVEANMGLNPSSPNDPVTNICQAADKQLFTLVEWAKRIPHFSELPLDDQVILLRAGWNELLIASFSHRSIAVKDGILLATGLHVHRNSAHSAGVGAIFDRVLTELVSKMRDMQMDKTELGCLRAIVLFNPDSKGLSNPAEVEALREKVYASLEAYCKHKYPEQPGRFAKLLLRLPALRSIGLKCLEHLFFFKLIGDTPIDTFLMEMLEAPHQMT
Protocol: Chem. 262:2425–2467 (1987)], was introduced into a plasmid which would regulate expression of the reporter, bacterial chloramphenicol acetyl transferase (see FIG. 1). The resultant reporter plasmid, pCRBPII-CAT, was tested for retinoic acid (RA) responsiveness after transfection into mouse embryonal teratocarcinoma F9 cells. F9 cells endogenously express high amounts of retinoic acid receptor (RAR), and can efficiently transactivate (>100-fold) a reporter plasmid containing the well characterized RA-inducible promoter of the RARβ gene [see de The et al., in Nature 343:177–180 (1990) and Sucov, et al., in Proc. Natl. Acad. Sci. U.S.A. 87:5392–5396 (1990)]. However, pCRBPII-CAT conferred no basal or RA-inducible CAT activity in these cells. To eliminate the possibility that regulation of the CRBPII promoter requires an augmented concentration of RAR, as is the case for the laminin retinoic acid response element [RARE; see Vasias, et al., in Proc. Natl Acad. Sci. U.S.A. 86:9099–9103 (1989], or that its regulation is isoform specific, expression vectors bearing all three subtypes of RAR were each separately cotransfected with pCRBPII-CAT into F9 cells.
To assess the exact sequences within the CRBPII promoter that function as an RXR response element (RXRE), a series of 5'-deletion mutants were constructed starting with the parent reporter plasmid pCRBPII-CAT (see FIG. 2). […]

Molecule | activity (% suppression of RXR activation) (RAR (subtype not stated)) | activity [1] [fold]
GCTGTCACAGGTCACAGGTCACAGGTCACAGTTCA (double strand) [CRBPII-RXRE] | 90 | 
CRBPII-RXRE (dsDNA) DNA 1: GCTGTCACAGGTCACAGGTCACAGGTCACAGTTCA DNA 2: TGAACTGTGACCTGTGACCTGTGACCTGTGACAGC |  | 100
